Results as given in IntAct's records for PubMed 11591686.

B1: RNA polymerase sigma factor RpoD (Pseudomonas aeruginosa (strain ATCC 15692 / PAO1 / 1C / PRS 101 / LMG 12228)), P26480 (parent)
chain: MSGKAQQQSRLKELIARGREQGYLTYAEVNDHLPEDISDPEQVEDIIRMINDMGINVFETAPDADALLLAEADTDEAAAEEAAAALAAVESDIGRTTDPVRMYMREMGTVELLTREGEIEIAKRIEEGIREVMSAIAQFPGTVDSILADYNRIVAEGGRLSDVLSGYIDPDDGSLPAEEVEPVNLKDDSADSKEKDDEEEESDDSSDSDDEGDGGPDPEEARLRFTAVSEQLDKAKKALKKHGRGSKQATAELTGLAELFMPIKLVPKQFDALVARVRSALEGVRAQERAIMQLCVRDARMPRADFLRLFPNHETDEKWVDSVLKSKPKYAEAIERLRDDILRNQQKLAALESEVELTVAEIKEINRAMSIGEAKARRAKKEMVEANLRLVISIAKKYTNRGLQFLDLIQEGNIGLMKAVDKFEYRRGYKFSTYATWWIRQAITRSIADQARTIRIPVHMIETINKLNRISRQMLQEMGREPTPEELGERMDMPEDKIRKVLKIAKEPISMETPIGDDEDSHLGDFIEDSTMQSPIEMATSESLKESTREVLAGLTAREAKVLRMRFGIDMNTDHTLEEVGKQFDVTRERIRQIEAKALRKLRHPSRSEHLRSFLDE
partner: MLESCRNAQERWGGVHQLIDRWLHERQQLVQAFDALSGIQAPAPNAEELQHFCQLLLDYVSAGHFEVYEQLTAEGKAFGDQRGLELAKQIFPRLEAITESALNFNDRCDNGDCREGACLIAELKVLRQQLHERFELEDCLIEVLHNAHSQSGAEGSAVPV
B2: RNA polymerase sigma factor RpoD (Pseudomonas aeruginosa (strain ATCC 15692 / PAO1 / 1C / PRS 101 / LMG 12228)), P26480 (parent)
chain: B1 chain
partner: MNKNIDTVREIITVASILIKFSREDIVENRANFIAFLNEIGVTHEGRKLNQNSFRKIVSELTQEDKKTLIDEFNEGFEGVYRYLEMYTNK
B3: RNA polymerase sigma factor RpoD (Pseudomonas aeruginosa (strain ATCC 15692 / PAO1 / 1C / PRS 101 / LMG 12228)), P26480 (parent)
chain: B1 chain
partner: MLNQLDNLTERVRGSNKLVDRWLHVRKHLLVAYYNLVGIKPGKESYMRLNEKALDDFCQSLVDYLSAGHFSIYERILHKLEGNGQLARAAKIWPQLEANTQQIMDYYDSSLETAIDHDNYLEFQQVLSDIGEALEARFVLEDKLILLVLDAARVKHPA

Variants of: B1
Conditions: with algq_pseae algQ

Variant	effect of a mutation on the interaction
R600H	decreasing interaction

Variants of: B2
Conditions: with asia_bpt4 asiA

Variant	effect of a mutation on the interaction
R600H	decreasing interaction

Variants of: B3
Conditions: with rsd_ecoli rsd

Variant	effect of a mutation on the interaction
R600H	decreasing interaction
